Test results published in patent US20200095340A1.

target: biotinylated human DLL3 protein expressed as a human IgG1 fusion protein (human) (UniProt Q9NYJ7); assay: Octet BLI; biotinylated huDLL3-IgG1 fusion on streptavidin tips; single 50 nM; conditioned medium
Target sequence in this assay (Q9NYJ7 other isoform, or with tags, fused parts or gaps): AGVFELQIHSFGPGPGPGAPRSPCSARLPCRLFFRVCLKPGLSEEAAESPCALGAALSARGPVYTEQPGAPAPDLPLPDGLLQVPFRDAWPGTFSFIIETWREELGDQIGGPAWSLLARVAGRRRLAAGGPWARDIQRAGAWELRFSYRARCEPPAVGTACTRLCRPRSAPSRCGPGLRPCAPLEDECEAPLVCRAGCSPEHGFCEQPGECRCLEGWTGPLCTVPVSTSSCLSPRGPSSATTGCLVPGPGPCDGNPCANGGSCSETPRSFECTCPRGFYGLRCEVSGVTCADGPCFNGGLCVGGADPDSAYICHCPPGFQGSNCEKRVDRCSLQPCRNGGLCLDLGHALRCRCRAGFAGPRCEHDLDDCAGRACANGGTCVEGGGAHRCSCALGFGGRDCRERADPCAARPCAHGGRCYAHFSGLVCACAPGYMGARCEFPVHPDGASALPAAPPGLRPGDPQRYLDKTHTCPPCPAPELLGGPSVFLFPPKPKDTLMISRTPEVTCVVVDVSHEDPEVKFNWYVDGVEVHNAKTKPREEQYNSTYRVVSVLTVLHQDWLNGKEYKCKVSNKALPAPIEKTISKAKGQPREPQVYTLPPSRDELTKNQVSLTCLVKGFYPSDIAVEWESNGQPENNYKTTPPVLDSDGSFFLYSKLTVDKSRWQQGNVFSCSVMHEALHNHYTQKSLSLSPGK

Binder	Kd [nM]
anti-DLL3 trispecific protein 4E09 (protein, part only; not given: anti-CD3 fragment and anti-albumin sdAb, part only) chain, part: EVQLVESGGGLVQPGGSLTLSCAASGSSVSFLSSAWYRQAPGKKRELVAGISADGSTLYIDSVKGRFTISRDNAKNSVYLQMNSLRAEDTAVYYCYAYRWTTRSTYWGQGTLVTVSSGGGGSGGGSGGGGSGGGSHHHHHH	9.1
anti-DLL3 trispecific protein 3C02 (protein, part only; not given: anti-CD3 and anti-albumin domains, part only) chain, part: EVQLVESGGGLVQPGGSLTLSCAASGSSVRFLSMAWYRQAPGKKRELVAGISADGSTIYIDSVKGRFTISRDNAKNSVYLQMNSLRAEDTAVYYCYAYRWRTRYTYWGQGTLVTVSSGGGGSGGGSGGGGSGGGSHHHHHH	9.1
anti-DLL3 trispecific protein 2F01 (protein, part only; not given: anti-CD3 and anti-albumin domains, part only) chain, part: EVQLVESGGGLVQPGGSLTLSCVASGSTSSINAMGWYRRAPGKQRELVAGISSDGSKVYSDSVKGRFTISRDNAKNSVYLQMNSLRAEDTAVYYCYYFRLVSGSSMRYWGQGTLVTVSSGGGGSGGGSGGGGSGGGSHHHHHH	9.2
anti-DLL3 trispecific protein 3A04 (protein, part only; not given: CD3 binder and albumin binder, part only) chain, part: EVQLVESGGGLVQPGGSLTLSCAASGSQVSFLSMAWYRQAPGKKRELVAGISRDGSTDYIDSVKGRFTISRDNAKNSVYLQMNSLRAEDTAVYYCYAYRWTTRYIYWGQGTLVTVSSGGGGSGGGSGGGGSGGGSHHHHHH	9.2
anti-DLL3 trispecific protein 1D012 (protein, part only; not given: anti-CD3 fragment and anti-albumin domain, part only) chain, part: EVQLVESGGGLVQPGGSLTLSCVASGSTSHINAMGWYRRAPGKQRELVAGISSDGSRVYADSVKGRFTISRDNAKNSVYLQMNSLRAEDTAVYYCYYFRTVSGGSMRYWGQGTLVTVSSGGGGSGGGSGGGGSGGGSHHHHHH	9.3
anti-DLL3 trispecific protein 1E08 (protein, part only; not given: anti-CD3 fragment and anti-albumin sdAb, part only) chain, part: EVQLVESGGGLVQPGGSLTLSCVASGKTSSINAMGWYRRAPGKQRELVAGISSDGSKVIADSVKGRFTISRDNAKNSVYLQMNSLRAEDTAVYYCYYFRTVLGSSMRYWGQGTLVTVSSGGGGSGGGSGGGGSGGGSHHHHHH	9.4
anti-DLL3 trispecific protein 4A05 (protein, part only; not given: anti-CD3 and anti-albumin domains, part only) chain, part: EVQLVESGGGLVQPGGSLTLSCAASGSSVSFLSLAWYRQAPGKKRELVAGISADGSTDYIDSVKGRFTISRDNAKNSVYLQMNSLRAEDTAVYYCYAYRWKTRRTYWGQGTLVTVSSGGGGSGGGSGGGGSGGGSHHHHHH	9.4
anti-DLL3 trispecific protein 1F01 (protein, part only; not given: CD3 fragment and albumin sdAb, part only) chain, part: EVQLVESGGGLVQPGGSLTLSCVASGSTSSINAMGWYRRAPGKQRELVAGISSDGSKVYGDSVKGRFTISRDNAKNSVYLQMNSLRAEDTAVYYCYYFRTVSRSSMRYWGQGTLVTVSSGGGGSGGGSGGGGSGGGSHHHHHH	9.4
anti-DLL3 trispecific protein 2F02 (protein, part only; not given: anti-CD3 fragment and anti-albumin sdAb, part only) chain, part: EVQLVESGGGLVQPGGSLTLSCVASGSTSSINAVGWYRRAPGKQRELVAGISSDGSKVYAGSVKGRFTISRDNAKNSVYLQMNSLRAEDTAVYYCYYFRTVSGSYMRYWGQGTLVTVSSGGGGSGGGSGGGGSGGGSHHHHHH	9.6
anti-DLL3 trispecific protein 1D04 (protein, part only; not given: CD3 fragment and albumin sdAb, part only) chain, part: EVQLVESGGGLVQPGGSLTLSCVASGSTSSKNAMGWYRRAPGKQRELVAGISSDGSKVYADSVKGRFTISRDNAKNSVYLQMNSLRAEDTAVYYCYYFRTVSGASMRYWGQGTLVTVSSGGGGSGGGSGGGGSGGGSHHHHHH	9.7
anti-DLL3 trispecific protein 4G05 (protein, part only; not given: CD3 fragment and albumin sdAb, part only) chain, part: EVQLVESGGGLVQPGGSLTLSCAASGSSVSILSMAWYRQAPGKKRELVAGISADGSTIYIDSVKGRFTISRDNAKNSVYLQMNSLRAEDTAVYYCYAYRWHTRYTYWGQGTLVTVSSGGGGSGGGSGGGGSGGGSHHHHHH	9.7
anti-DLL3 trispecific protein 4F04 (protein, part only; not given: anti-CD3 fragment and anti-albumin sdAb, part only) chain, part: EVQLVESGGGLVQPGGSLTLSCAASRSSVSFLSMAWYRQAPGKKRELVAGISTDGSTDYIDSVKGRFTISRDNAKNSVYLQMNSLRAEDTAVYYCYAYRWLTRYTYWGQGTLVTVSSGGGGSGGGSGGGGSGGGSHHHHHH	9.8
anti-DLL3 trispecific protein 4A07 (protein, part only; not given: CD3 binder and albumin binder, part only) chain, part: EVQLVESGGGLVQPGGSLTLSCAASGSKVSFLSMAWYRQAPGKKRELVAGISADGSTLYIDSVKGRFTISRDNAKNSVYLQMNSLRAEDTAVYYCYAYRWTTRYRYWGQGTLVTVSSGGGGSGGGSGGGGSGGGSHHHHHH	9.8
anti-DLL3 trispecific protein 4G010 (protein, part only; not given: anti-CD3 and anti-albumin domains, part only) chain, part: EVQLVESGGGLVQPGGSLTLSCAASGHSVSFLSMAWYRQAPGKKRELVAGISADGSTDYIASVKGRFTISRDNAKNSVYLQMNSLRAEDTAVYYCYAYRWSTRYTYWGQGTLVTVSSGGGGSGGGSGGGGSGGGSHHHHHH	9.9
anti-DLL3 trispecific protein 4D010 (protein, part only; not given: anti-CD3 fragment and anti-albumin sdAb, part only) chain, part: EVQLVESGGGLVQPGGSLTLSCAASGSSVSFLSMAWYRQAPGKKRELVAGISADGSTDYIHSVKGRFTISRDNAKNSVYLQMNSLRAEDTAVYYCYAYRWRTRYTYWGQGTLVTVSSGGGGSGGGSGGGGSGGGSHHHHHH	9.9
anti-DLL3 trispecific protein 3H03 (protein, part only; not given: anti-CD3 fragment and anti-albumin domain, part only) chain, part: EVQLVESGGGLVQPGGSLTLSCAASGSSVRFLSMAWYRQAPGKKRELVAGISTDGSTDYIDSVKGRFTISRDNAKNSVYLQMNSLRAEDTAVYYCYALRWTTRYTYWGQGTLVTVSSGGGGSGGGSGGGGSGGGSHHHHHH	9.9

target: biotinylated human DLL3 protein expressed as a human IgG1 fusion protein (human) (UniProt Q9NYJ7); assay: Octet, biotinylated human DLL3-IgG1 fusion on streptavidin tips, single 50 nM, conditioned medium (relative KD)
Target sequence in this assay (Q9NYJ7 27-492): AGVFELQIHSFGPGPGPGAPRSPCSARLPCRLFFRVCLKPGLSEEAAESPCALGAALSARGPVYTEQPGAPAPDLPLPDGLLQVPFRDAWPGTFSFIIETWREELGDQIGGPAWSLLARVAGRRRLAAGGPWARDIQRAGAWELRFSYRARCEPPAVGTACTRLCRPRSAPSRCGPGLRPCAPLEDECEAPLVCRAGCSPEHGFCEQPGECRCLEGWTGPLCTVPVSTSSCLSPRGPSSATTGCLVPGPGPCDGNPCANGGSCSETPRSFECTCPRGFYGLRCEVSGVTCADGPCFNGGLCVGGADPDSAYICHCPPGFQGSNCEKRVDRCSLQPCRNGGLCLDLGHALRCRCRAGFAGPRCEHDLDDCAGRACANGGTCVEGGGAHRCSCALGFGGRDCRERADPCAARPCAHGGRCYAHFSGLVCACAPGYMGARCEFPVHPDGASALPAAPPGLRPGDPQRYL

Binder	Kd [nM]
anti-DLL3 trispecific protein, DLL3 binder 3F06 (protein, part only; not given: anti-CD3 fragment and anti-albumin sdAb, part only) chain, part: EVQLVESGGGLVQPGGSLTLSCAASGSRVSFLSMAWYRQAPGKKRELVAGISADGSTSYIDSVKGRFTISRDNAKNSVYLQMNSLRAEDTAVYYCYAYRWATRYTYWGQGTLVTVSSGGGGSGGGSGGGGSGGGSHHHHHH	9.9
anti-DLL3 trispecific protein, DLL3 binder 1D08 (protein, part only; not given: CD3 binder and albumin binder, part only) chain, part: EVQLVESGGGLVQPGGSLTLSCVASGLTSSINAMGWYRRAPGKQRELVAGISSDGSKVYADSVKGRFTISRDNAKNSVYLQMNSLRAEDTAVYYCYYFRMVSGSSMRYWGQGTLVTVSSGGGGSGGGSGGGGSGGGSHHHHHH	10
anti-DLL3 trispecific protein, DLL3 binder 2B010 (protein, part only; not given: CD3 fragment and albumin sdAb, part only) chain, part: EVQLVESGGGLVQPGGSLTLSCVASGSTSSRNAMGWYRRAPGKQRELVAGISSDGSKLYLDSVKGRFTISRDNAKNSVYLQMNSLRAEDTAVYYCYYFRTVLGSSMRYWGQGTLVTVSSGGGGSGGGSGGGGSGGGSHHHHHH	10
anti-DLL3 trispecific protein, DLL3 binder 3B01 (protein, part only; not given: anti-CD3 fragment and anti-albumin sdAb, part only) chain, part: EVQLVESGGGLVQPGGSLTLSCAASGSSVSFLSMAWYRQAPGKKRELVAGISGDGSTDYIDSVKGRFTISRDNAKNSVYLQMNSLRAEDTAVYYCYAYRWTTRYTYWGQGTLVTVSSGGGGSGGGSGGGGSGGGSHHHHHH	10
anti-DLL3 trispecific protein, DLL3 binder 3D01 (protein, part only; not given: CD3 binder and albumin binder, part only) chain, part: EVQLVESGGGLVQPGGSLTLSCAASGSSVSFLSMAWYRQAPGKKRELVAGISRDGSTDYIDSVKGRFTISRDNAKNSVYLQMNSLRAEDTAVYYCYAYRWITRYTYWGQGTLVTVSSGGGGSGGGSGGGGSGGGSHHHHHH	10
anti-DLL3 trispecific protein, DLL3 binder 4A01 (protein, part only; not given: CD3 binder and albumin binder, part only) chain, part: EVQLVESGGGLVQPGGSLTLSCAASGSSVRFLSMAWYRQAPGKKRELVAGISQDGSTDYIDSVKGRFTISRDNAKNSVYLQMNSLRAEDTAVYYCYAYRWRTRYTYWGQGTLVTVSSGGGGSGGGSGGGGSGGGSHHHHHH	10
